From patent US11414460B2, “KRAS-specific capture agents, compositions, and methods of making and using” (Institute for Systems Biology, priority 2019, dated 2022)
Positions of bridges follow the written chain, without caps; N, C: chain ends. Non-standard residues stand in square brackets, D forms with d. Residues, ends and D or L forms follow the SMILES beside them. Triazole bridges read from a SMILES are 1,4-linked. No end group written: not given here. ξ: configuration not given here. dPhe(4-guanidino) = N=C(N)Nc1ccc(C[C@@H](N)C(=O)O)cc1; Phe(4-guanidino) = N=C(N)Nc1ccc(C[C@H](N)C(=O)O)cc1; ξLys(N3) = [N-]=[N+]=NCCCCC(N)C(=O)O; Aha = [N-]=[N+]=NCC[C@H](N)C(=O)O; Pra = C#CC[C@H](N)C(=O)O

Tests used:
[1] = target: T1, KRAS (G12D) (Homo sapiens, UniProt P01116, G12D); experiment: ELISA binding of cyclic peptides to KRAS (G12D); details: absorbance units; for ELISA binding compared with LRGGnf: FIG. 3 and FIG. 4, 5 μM and 20 μM peptide, KRAS (WT) and KRAS (G12D)
Protocol: FIG. 2 is a graph of a single point ELISA assay comparing the binding (measured in absorbance units, A.U.) of cyclic peptide 7b10 (LRGDGnf; SEQ ID NO:5) and LRGGnf (SEQ ID NO:4) to KRAS (WT) and KRAS (G12D).
FIG. 3 is a graph of ELISA assays of four peptides (LRGGnf (SEQ ID NO:4), LRG (F—Br) (SEQ ID NO:6), LRGGnf-Az3 (SEQ ID NO:4), and LRGGnf-Az2 (SEQ ID NO:4)) at two different concentrations (5 μM and 20 μM) to KRAS (WT) and KRAS (G12D) comparing the binding (measured in absorbance units, A.U.). […] All of the cyclic peptides show preferential binding to KRAS (G12D) over KRAS (WT).
FIG. 4 is a graph of ELISA assays of four peptides (QDNY (SEQ ID NO:14), QNGnfY (SEQ ID NO:24), QQGnfGnf (SEQ ID NO:3), and LRGGnf (SEQ ID NO:4)) at two different concentrations (5 μM and 20 μM) to KRAS (WT) and KRAS (G12D) comparing the binding (measured in absorbance units, A.U.). […] All of the cyclic peptides show preferential binding to KRAS (G12D) over KRAS (WT).

[2] = target: KRAS (WT) (Homo sapiens, UniProt P01116); experiment: EC50 for KRAS (WT); type: binding
[3] = target: T1, KRAS (G12D); experiment: EC50 for KRAS (G12D); type: binding

Compound | ELISA binding compared with LRGGnf [1] | also measured
LRG (F—Br): cyclic peptide with variable region LRGF-Br (SEQ ID NO:6), F—Br is bromophenylalanine (LRG[bromophenylalanine]; also: cyclic peptide, only variable region given) | noticeable worse | 
LRGGnf-Az3: cyclic peptide LRGGnf (SEQ ID NO:4) with azidoornithine (OrnN3 or Az3) (LRG[Phe(4-guanidino)]; also: cyclic peptide, only variable region given, azidoornithine (Az3) modification, position not given here) | comparable to LRGGnf | 
CC(C)C[C@@H]1NC(=O)[C@@H](N)Cc2cn(nn2)CC[C@@H](C(N)=O)NC(=O)[C@H](Cc2ccc(NC(=N)N)cc2)NC(=O)CNC(=O)[C@H](CCCNC(=N)N)NC1=O [LRGGnf-Az2] (H-[Pra]LRG[Phe(4-guanidino)][Aha]-NH2; triazole 1-6; N-terminus and C-terminus assumed) | slightly better | 
LRGGnf: cyclic peptide with variable region LRGGnf (SEQ ID NO:4) (LRG[Phe(4-guanidino)]; also: cyclic peptide, only variable region given) |  | binding compared to LRGDGnf, single point ELISA ([1]; FIG. 2, single point ELISA to KRAS (WT) and KRAS (G12D)): 5 times
QDNY: cyclic peptide with variable region QDNY (SEQ ID NO:14) (also: cyclic peptide, variable region only, ring closure not given here) | more so | 
N=C(N)Nc1ccc(C[C@H]2NC(=O)[C@@H](Cc3ccc(NC(=N)N)cc3)NC(=O)[C@@H](CCC(N)=O)NC(=O)[C@@H](CCC(N)=O)NC(=O)[C@@H](N)Cc3cn(nn3)CCCCC(C(N)=O)NC2=O)cc1 (stereo partly shown) [QQGnfGnf] (H-[Pra][dQ][dQ][dPhe(4-guanidino)][dPhe(4-guanidino)][ξLys(N3)]-NH2; triazole 1-6) |  | EC50 [2]: 3 µM; EC50 [3]: 1 µM
